Test results published in the supplement of paper PMC11246515.
± gives the standard deviation of the averaged measurements.

Test: total protein half-life in vivo (active degradation + dilution); higher = more stable protein
[1] = wild type E. coli NCM3722, growth: P-lim chemostat, doubling time 6 h
[2] = wild type E. coli NCM3722, growth: P-lim chemostat, doubling time 12 h
[3] = E. coli NCM3722 delta-clpP delta-lon delta-hslV, growth: N-lim chemostat, doubling time 6 h
[4] = E. coli NCM3722 delta-clpP, growth: N-lim chemostat, doubling time 6 h
[5] = E. coli NCM3722 delta-hslV, growth: N-lim chemostat, doubling time 6 h
[6] = E. coli NCM3722 delta-lon, growth: N-lim chemostat, doubling time 6 h
[7] = E. coli NCM3722 delta-smpB, growth: N-lim chemostat, doubling time 6 h
[8] = wild type E. coli NCM3722, growth: C-lim chemostat, doubling time 3 h
[9] = wild type E. coli NCM3722, growth: C-lim chemostat, doubling time 6 h
[10] = wild type E. coli NCM3722, growth: C-lim chemostat, doubling time 12 h
[11] = wild type E. coli NCM3722, growth: N-lim chemostat, doubling time 6 h
[12] = wild type E. coli NCM3722, growth: N-lim chemostat, doubling time 12 h

Row | Sequence | total protein half-life in vivo [1] | total protein half-life in vivo [2] | total protein half-life in vivo [3] | total protein half-life in vivo [4] | total protein half-life in vivo [5] | total protein half-life in vivo [6] | total protein half-life in vivo [7] | total protein half-life in vivo [8] | total protein half-life in vivo [9] | total protein half-life in vivo [10] | total protein half-life in vivo [11] | total protein half-life in vivo [12]
1 | MTHQLRSRDIIALGFMTFALFVGAGNIIFPPMVGLQAGEHVWTAAFGFLITAVGLPVLTVVALAKVGGGVDSLSTPIGKVAGVLLATVCYLAVGPLFATPRTATVSFEVGIAPLTGDSALPLFIYSLVYFAIVILVSLYPGKLLDTVGNFLAPLKIIALVILSVAAIVWPAGSISTATEAYQNAAFSNGFVNGYLTMDTLGAMVFGIVIVNAARSRGVTEARLLTRYTVWAGLMAGVGLTLLYLALFRLGSDSASLVDQSANGAAILHAYVQHTFGGGGSFLLAALIFIACLVTAVGLTCACAEFFAQYVPLSYRTLVFILGGFSMVVSNLGLSQLIQISVPVLTAIYPPCIALVVLSFTRSWWHNSSRVIAPPMFISLLFGILDGIKASAFSDILPSWAQRLPLAEQGLAWLMPTVVMVVLAIIWDRAAGRQVTSSAH [P0AD99] | 0.949 h | 1.98 ± 0.53 h | – | – | – | – | – | – | – | – | – | –
2 | MDFFSVQNILVHIPIGAGGYDLSWIEAVGTIAGLLCIGLASLEKISNYFFGLINVTLFGIIFFQIQLYASLLLQVFFFAANIYGWYAWSRQTSQNEAELKIRWLPLPKALSWLAVCVVSIGLMTVFINPVFAFLTRVAVMIMQALGLQVVMPELQPDAFPFWDSCMMVLSIVAMILMTRKYVENWLLWVIINVISVVIFALQGVYAMSLEYIILTFIALNGSRMWINSARERGSRALSH [P0AFK2] | 6.07 ± 0.39 h | – | 6.22 h | 6.15 ± 0.15 h | 6.54 h | 5.58 ± 0.22 h | 5.5 ± 0.096 h | 3.29 ± 0.33 h | 6.14 ± 0.31 h | 11.8 ± 2.2 h | 6.05 h | 11.5 ± 3 h
3 | MLMITSFANPRVAQAFVDYMATQGVILTIQQHNQSDVWLADESQAERVRAELARFLENPADPRYLAASWQAGHTGSGLHYRRYPFFAALRERAGPVTWVMMIACVVVFIAMQILGDQEVMLWLAWPFDPTLKFEFWRYFTHALMHFSLMHILFNLLWWWYLGGAVEKRLGSGKLIVITLISALLSGYVQQKFSGPWFGGLSGVVYALMGYVWLRGERDPQSGIYLQRGLIIFALIWIVAGWFDLFGMSMANGAHIAGLAVGLAMAFVDSLNARKRK | 5.84 h | 11.6 ± 1.8 h | 5.94 ± 0.09 h | 7.254 ± 0.027 h | – | – | 4.85 h | – | 5.67 h | 7.94 h | – | 11.7 h
4 | MKQLTILGSTGSIGCSTLDVVRHNPEHFRVVALVAGKNVTRMVEQCLEFSPRYAVMDDEASAKLLKTMLQQQGSRTEVLSGQQAACDMAALEDVDQVMAAIVGAAGLLPTLAAIRAGKTILLANKESLVTCGRLFMDAVKQSKAQLLPVDSEHNAIFQSLPQPIQHNLGYADLEQNGVVSILLTGSGGPFRETPLRDLATMTPDQACRHPNWSMGRKISVDSATMMNKGLEYIEARWLFNASASQMEVLIHPQSVIHSMVRYQDGSVLAQLGEPDMRTPIAHTMAWPNRVNSGVKPLDFCKLSALTFAAPDYDRYPCLKLAMEAFEQGQAATTALNAANEITVAAFLAQQIRFTDIAALNLSVLEKMDMREPQCVDDVLSVDANAREVARKEVMRLAS | 5.88 ± 0.068 h | 9.74 ± 0.61 h | 4.22 ± 0.36 h | 3.69 ± 0.044 h | 4.05 ± 0.23 h | 3.93 ± 0.36 h | 3.84 ± 0.34 h | 2.81 ± 0.21 h | 5.32 ± 0.24 h | 9.19 ± 0.66 h | 3.64 ± 0.13 h | 5.81 ± 0.34 h
5 | MRITIYTRNDCVQCHATKRAMENRGFDFEMINVDRVPEAAEALRAQGFRQLPVVIAGDLSWSGFRPDMINRLHPAPHAASA [P0AC65] | – | – | 2.48 ± 0.033 h | – | – | – | – | – | – | – | – | –
6 | MGFTTRVKSEASEKKPFNFALFWDKYGTFFILAIIVAIFGSLSPEYFLTTNNITQIFVQSSVTVLIGMGEFFAILVAGIDLSVGAILALSGMVTAKLMLAGVDPFLAAMIGGVLVGGALGAINGCLVNWTGLHPFIITLGTNAIFRGITLVISDANSVYGFSFDFVNFFAASVIGIPVPVIFSLIVALILWFLTTRMRLGRNIYALGGNKNSAFYSGIDVKFHILVVFIISGVCAGLAGVVSTARLGAAEPLAGMGFETYAIASAIIGGTSFFGGKGRIFSVVIGGLIIGTINNGLNILQVQTYYQLVVMGGLIIAAVALDRLISK | – | – | – | – | 5.22 h | – | – | – | 5.91 h | – | – | –
7 | MKPIFSRGPSLQIRLILAVLVALGIIIADSRLGTFSQIRTYMDTAVSPFYFVSNAPRELLDGVSQTLASRDQLELENRALRQELLLKNSELLMLGQYKQENARLRELLGSPLRQDEQKMVTQVISTVNDPYSDQVVIDKGSVNGVYEGQPVISDKGVVGQVVAVAKLTSRVLLICDATHALPIQVLRNDIRVIAAGNGCTDDLQLEHLPANTDIRVGDVLVTSGLGGRFPEGYPVAVVSSVKLDTQRAYTVIQARPTAGLQRLRYLLLLWGADRNGANPMTPEEVHRVANERLMQMMPQVLPSPDAMGPKLPEPATGIAQPTPQQPATGNAATAPAAPTQPAANRSPQRATPPQSGAQPPARAPGGQ | 4.98 ± 0.25 h | 10.5 ± 0.18 h | 5.092 ± 0.007 h | 4.62 ± 0.051 h | 4.54 ± 0.24 h | – | 4.76 ± 0.74 h | 2.85 ± 0.07 h | 5.57 ± 1.1 h | 10.25 ± 0.089 h | 4.21 ± 0.1 h | 8.66 ± 0.23 h
8 | MSKTIATENAPAAIGPYVQGVDLGNMIITSGQIPVNPKTGEVPADVAAQARQSLDNVKAIVEAAGLKVGDIVKTTVFVKDLNDFATVNATYEAFFTEHNATFPARSCVEVARLPKDVKIEIEAIAVRR [P0AF93] | 5.694 ± 0.0093 h | 12.8 ± 0.61 h | 6.26 ± 0.82 h | 5.12 ± 0.65 h | 5.28 ± 0.082 h | 5.91 ± 0.21 h | 5.15 ± 0.68 h | 3.16 ± 0.28 h | 5.56 ± 0.15 h | 10.8 ± 1.1 h | 4.88 ± 0.16 h | 8.99 ± 0.37 h
